We go through four molecules from US20150010566A1 (AIMM THERAPEUTICS B V, published 2015).

For test [1], the target named is T1, H3 HA1 subunit (A/Aichi/2/1968, HA1 subunit, Met-1-Arg 345) (Influenza A virus H3N2 A/Aichi/2/1968, UniProt P03437 17-345).
T1 construct: range 1-345; also called H3N2 A/Aichi/2/1968 HA1 subunit
The experiment in a line: ELISA; antigen coated 1 µg/ml; recombinant antibody. On the set-up: concentration or dose not given beside the values. For orientation: An ELISA detects its analyte on a solid surface through an enzyme-linked reagent.

Test [2] has as its target T1, H3 HA1 subunit (A/Aichi/2/1968, HA1 …). The experiment in a line: ELISA; HA1 subunit coated 1 µg/ml; recombinant antibody.

B1: AT10-001 (antibody, V domains shown)
VH: EVQLLESGGGLVQPGGSLRLSCAASGFSFSTYAMSWVRQAPGKGLEWVSGISGSGESTYYADSVKGRFTVSRDNSKNTLYLQMNSLRAEDTAVYYCAKQGDHIAWLLRGINFDYWGQGVLVTVSS
VL: EIVLTQSPGTLSLSPGERATLSCRASQSVSSSYLAWYQQKPGQAPRLLIYGASTRATGIPDRFSGRGSGTDFTLTISSLEPEDFAVYYCQNYGSPFLFTFGPGTKVDIKR
With B1, the “OD 450 nm” value in test [1] was determined as 0.01 OD 450 nm. The binding result in test [2] is given as “no binding”.

B2: AT10-003 (antibody, V domains shown)
VH: QVHLVQSGAEVRKPGASVKVSCKVSGYTLNELSIHWLRQAPGRGLEWMGSFDPEDGETIYAQKFQGRVTMTGDTSTDTAYLELTSLRSEDTALYYCARGWGAVTSPFDFWGQGTLVTVSS
VL: DIVMTQSPLSLPVTPGEPASISCRSSQSLLHSNGHIYFDWYLQKPGQSPQLLIYLVSKRASGVPDRFSGSGSGTDFTLKISRVEAEDVGVYYCMQALETPFTFGPGTKVHIKR
In the case of B2, in test [1], the “OD 450 nm” value was determined as 1.28 OD 450 nm.

B3: AT10-002 (antibody, V domains shown)
VH: QLQLQESGPRLVKPSETLSLTCSVSGVSISSSNYYWGWIRQPPGKGLEWIGTIYHSGSTYYNPSLKSRLIISVDTSKNQFYLQLTSLTAADSAVYYCATGGGFGWSQTYFGYWGQGTLVTASS
VL: QSALTQPASVSGSPGQSITISCTGTSSDVGAYNYVSWYQHHPGKAPKLMIYDVTYRPSGVSTRFSGSKSGNTASLTISGLQAEDEADYYCSSQSRSSTLVIFGGGTKLTVLG
Consider B3, for which the “OD 450 nm” value in test [1] was -0.006 OD 450 nm.

B4: AT10-004 (antibody, V domains shown)
VH: QVQLVQSGAEVRKPGASVKVSCKASGYTFTRHGISWVRQAPGQGLEWMGWISAYTGDTDYAQKFQGRVTMTTDTSTNTAYMELRSLRSDDAAVYYCARLRLQGEVVVPPSQSNWFDPWGQGTLVTVSS
VL: EIVLTQSPATLSLYPGERATLSCRASQSVSRYLAWYQQKPGQAPRLLIYDASNRATGIPARFSGSGSGTDFTLTISSLEPEDFAVYYCQQRSNWLKITFGQGTRLEIKG
Consider B4, for which, in test [1], the “OD 450 nm” value is 0.096 OD 450 nm. For the same molecule, in test [2], the binding result was “no binding”.
